The text below walks through data of patent US7910544B2, “Conformationally constrained parthyroid hormone (PTH) analogs” (The General Hospital Corporation, priority 2003, dated 2011).

The target of assay [1] is T1, P1R-delNt (Homo sapiens, UniProt Q03431).
T1 construct: expressed in transfected cells; host or cells: COS-7
T1 sequence (Q03431 with tags, fused parts or gaps limits assumed): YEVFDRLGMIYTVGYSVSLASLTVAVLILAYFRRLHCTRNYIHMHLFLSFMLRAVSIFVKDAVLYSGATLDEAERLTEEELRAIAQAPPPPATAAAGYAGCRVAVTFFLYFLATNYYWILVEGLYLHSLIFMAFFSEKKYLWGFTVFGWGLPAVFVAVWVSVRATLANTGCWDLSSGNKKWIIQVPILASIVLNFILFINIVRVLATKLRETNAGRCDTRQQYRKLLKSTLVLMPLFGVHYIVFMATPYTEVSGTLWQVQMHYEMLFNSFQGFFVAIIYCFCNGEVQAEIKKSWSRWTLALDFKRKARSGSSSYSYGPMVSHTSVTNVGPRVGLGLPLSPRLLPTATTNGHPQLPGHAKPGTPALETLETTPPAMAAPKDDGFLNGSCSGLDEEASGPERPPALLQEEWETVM
Description: cAMP antagonism assay in COS-7 cells transfected with P1R-delNt. It is filed as cell-based. Conditions: for N versus J domain selectivity of P1R antagonist: concluded from cAMP antagonism on wild-type P1R and P1R-delNt in COS-7 cells; for antagonism of agonist-induced cAMP response: P1R-delNt, antagonist 1×10−5 M. As for the experimental part: (§1) FIG. 8. “N” versus “J” Domain selectivity of P1R Antagonists in COS-7 Cells. cAMP antagonism assays were performed in COS-7 cells transfect with the wild-type P1R (A), or a P1R derivative (P1R-delNt) having most (residues 24-181) of the P1R N domain deleted (B). Cells were treated with the agonist [Aib^1,3,Tyr^34]hpTH(1-34)NH2 ([Aib^1,3]PTH(1-34)), which utilizes both N and J domains for affinity/potency, or with [Ac5c^1, Aib^3, Gln^10,Har^11,Ala^12,Trp^14]PTH(1-14)NH2 ([Ac5c^1]PTH(1-14)), which uses only the J domain for affinity/potency, at the concentrations indicated in the key, so as to elicit half-maximum cAMP responses in the absence of antagonist (none). The analogs PTHrP(5-36) and Deg^1,3,Bpa^2-PTH(1-21) were added at 1×10−5 M, as indicated.
(§2) Cell Culture. The cell line HKRK-B28 (Shimizu, el al., Biochem. 41: 13224-33 (2002)) was derived from the porcine kidney cell line, LLC-PK1 by stable transfection with plasmid DNA encoding the opossum/rat hybrid P1R and expresses ˜280,000 receptors per cell. The HKRK-B7 cell line was derived from the LLC-PK1 cell line by stable transfection with DNA encoding human P1R. HKRK-B7 cells expresses approximately 950,000 human P1R per cell (Takasu, H., et al., J. Bone Miner. Res. 14: 11-20 (1999)). These cells, as well as COS-7 cells and SaOS-2-B10 cells, are cultured at […] in T-75 flasks ([…]) in Dulbecco's modified Eagle's medium (DMEM) supplemented with fetal bovine serum (10%), penicillin G (20 units/ml), streptomycin sulfate (20 μg/ml) and amphotericin B (0.05 μg/ml) in a humidified atmosphere containing 5% Co2. Stock solutions of EGTA/trypsin and antibiotics are from GIBCO; fetal bovine serum is from Hyclone Laboratories (Logan, Utah). COS-7 cells sub-cultured in 24-well plates are transfected with plasmid DNA (200 ng per well) encoding the wild-type human P1R or truncated human P1R deleted for residues (24-181) (Shimizu, M., et al., J. Biol. Chem. 275: 21836-21843 (2000)) that is purified by cesium chloride/ethidium bromide density gradient centrifugation, and FuGENE 6 transfection reagent (Roche Indianapolis Ind.) according to the manufacturer's recommended procedure. All cells, in 24-well plates, are treated with fresh media and shifted to 33° C. for 12 to 24 h prior to assay.
(§3) cAMP Stimulation. Stimulation of cells with peptide analogs is performed in 24-well plates. Cells are rinsed with 0.5 mL of binding buffer (50 mM Tris-HCl, 100 mM NaCl, 5 mM KCl, 2 mM CaCl2, 5% heat-inactivated horse serum, 0.5% fetal bovine serum, adjusted to pH 7.5 with HCl) and treated with 200 μL of cAMP assay buffer (Delbecco's modified Eagle's medium containing 2 mM 3-isobutyl-1-methylxanthine, 1 mg/mL bovine serum albumin, 35 mM Hepes-NaOH, pH 7.4) and 100 μL of binding buffer containing varying amounts of peptide analog (final volume=300 μL). The medium is removed after incubation for 30 to 60 minutes at room temperature, and the cells are frozen on dry ice, lysed with 0.5 mL 50 mM HCl, and refrozen ([…]). The cAMP content of the diluted lysate is determined by radioimmunoassay. The EC50 response values are calculated using nonlinear regression (see below).
“N” versus “J” domain selectivity of P1R antagonists was investigated in COS-7 Cells (FIG. 8). cAMP antagonism assays were performed in COS-7 cells transfect with the wild-type P1R (A), or a P1R derivative (P1R-delNt) having most (residues 24-181) of the P1R N domain deleted (B). Cells were treated with the agonist [Aib^1,3,Tyr^34]hPTH(1-34)NH2 ([Aib^1,3]PTH(1-34)), which utilizes both N and J domains for affinity/potency, or with [Ac5c^1,Aib^3,Gln^10,Har^11,Ala^12,Trp^14]PTH(1-14)NH2 ([Ac5c^1]PTH(1-14)), which uses only the J domain for affinity/potency, at the concentrations indicated in the key, so as to elicit half-maximum cAMP responses in the absence of antagonist (none). The analogs PTHrP(5-36) and Deg^1,3,Bpa^2-PTH(1-21) were added at 1×10−5 M, as indicated.

Assay [2] deals with T1, P1R-delNt. Description: Competitive antagonism on P1R-delNt (shift of agonist dose-response curve, cAMP). Particulars: for shift of agonist dose-response curve: agonist [Aib1,3,Tyr34]hPTH(1-34)NH2, antagonist 1×10−5 M, COS-7/P1R-delNt; for mechanism of inhibition: from shift of [Aib1,3,Tyr34]hPTH(1-34)NH2 dose-response curve. It counts as cell-based.
From the text: FIG. 10. Competitive Antagonism on P1R-delNt. COS-7 cells transfected with P1R-delNt were stimulated with varying concentrations of the agonist [Aib^1,3,Tyr^34]hPTH(1-34)NH2 ([Aib^1,3]PTH(1-34)), either in the absence of antagonist or in the presence of an antagonist, [Deg^1,3,Bpa2,M]PTH(1-14) or [Deg^1,3,Bpa^2,M]PTH(1-21) each at 1×10−5 M, as indicated in the figure key.
as §2, §3
The pharmacologic mechanism by which [Deg^1,3,BPA^2,Nle^8,Gln^10,Har^11,Ala^12,Trp^14,Arg^19,Tyr^21]PTH(1-21)NH2 and [Deg^1,3,Bpa^2,Gln^10,Har^11,Ala^12,Trp^14]PTH(1-14)NH2 function as antagonists was investigated in FIG. 10. In this study, the effects of the antagonists at […], on the dose-response curve elicited by the agonist [Aib^1,3,Tyr^34]hPTH(1-34)NH2 were examined in […].

The target of assay [3] is T2, wild-type P1R (Homo sapiens, UniProt Q03431).
T2 construct: expressed in transfected cells; host or cells: COS-7
T2 sequence (Q03431 27-593): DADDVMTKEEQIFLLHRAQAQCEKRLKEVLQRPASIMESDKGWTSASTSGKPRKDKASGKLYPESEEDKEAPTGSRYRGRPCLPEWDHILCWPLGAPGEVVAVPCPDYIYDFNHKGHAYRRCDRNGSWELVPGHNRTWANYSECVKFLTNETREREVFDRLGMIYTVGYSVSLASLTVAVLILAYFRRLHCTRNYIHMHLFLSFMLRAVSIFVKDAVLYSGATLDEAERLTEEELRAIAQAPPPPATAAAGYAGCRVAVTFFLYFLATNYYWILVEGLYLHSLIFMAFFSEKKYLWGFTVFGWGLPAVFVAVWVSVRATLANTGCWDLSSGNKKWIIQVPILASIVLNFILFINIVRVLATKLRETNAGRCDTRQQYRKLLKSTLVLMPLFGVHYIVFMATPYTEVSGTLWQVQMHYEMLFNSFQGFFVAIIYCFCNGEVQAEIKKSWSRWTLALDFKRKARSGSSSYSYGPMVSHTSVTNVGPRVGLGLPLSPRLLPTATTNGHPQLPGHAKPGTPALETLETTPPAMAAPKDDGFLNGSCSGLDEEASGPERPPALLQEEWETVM
Kind of assay: cAMP antagonism assay in COS-7 cells transfected with wild-type P1R. It counts as cell-based. Conditions: WT receptor; agonist [Ac5c1,Aib3,Gln10,Har11,Ala12,Trp14]PTH(1-14)NH2; antagonist 1×10−5 M; listed as Deg^1,3,Bpa^2-PTH(1-21). Here is the method: as §1
Cell Culture. The cell line HKRK-B28 (Shimizu, el al., Biochem. 41: 13224-33 (2002)) was derived from the porcine kidney cell line, LLC-PK1 by stable transfection with plasmid DNA encoding the opossum/rat hybrid P1R and expresses ˜280,000 receptors per cell. The HKRK-B7 cell line was derived from the LLC-PK1 cell line by stable transfection with DNA encoding human P1R. […]
cAMP Stimulation. […] The cAMP content of the diluted lysate is determined by radioimmunoassay. The EC50 response values are calculated using nonlinear regression (see below). […]

The target of assay [4] is T3, P1R (Homo sapiens, UniProt Q03431).
T3 sequence (Q03431 27-593): T2 sequence (Q03431 27-593)
Conditions: literature (Luck et al. 1999); read-out: cAMP-signaling potency EC50; cited from earlier work.

Non-standard residues stand in square brackets, D forms with d. No end group written: not given here. Bpa = N[C@@H](Cc1ccc(C(=O)c2ccccc2)cc1)C(=O)O; hArg = N=C(N)NCCCC[C@H](N)C(=O)O; Nle = CCCC[C@H](N)C(=O)O; Deg = CCC(N)(CC)C(=O)O

On to “DegBpaDegGluIleGlnLeuMetHisGlnHarAlaLysTrpNH2 ([Deg][Bpa][Deg]EIQLMHQ[hArg]AKW-NH2; N-terminus assumed; SMILES CC[C@H](C)[C@H](NC(=O)[C@H](CCC(=O)O)NC(=O)C(CC)(CC)NC(=O)[C@H](Cc1ccc(C(=O)c2ccccc2)cc1)NC(=O)C(N)(CC)CC)C(=O)N[C@@H](CCC(N)=O)C(=O)N[C@@H](CC(C)C)C(=O)N[C@@H](CCSC)C(=O)N[C@@H](Cc1c[nH]cn1)C(=O)N[C@@H](CCC(N)=O)C(=O)N[C@@H](CCCCNC(=N)N)C(=O)N[C@@H](C)C(=O)N[C@@H](CCCCN)C(=O)N[C@@H](Cc1c[nH]c2ccccc12)C(N)=O)”, for which, in assay [1], the “N versus J domain selectivity of P1R antagonist” value is listed as “behaved similarly in these assays to Deg^1,3,Bpa^2-PTH(1-21)”. Also, in assay [2], the “shift of agonist dose-response curve” value was “rightward and parallel shift in the agonist response curve”; the mechanism of inhibition result is given as “competitive”. Besides, in assay [2] (listed as [Deg^1,3,Bpa2,M]PTH(1-14)), the “shift of agonist dose-response curve” value is “parallel, right-ward shift in the agonist dose-response curve”.

“DegBpaDegGluIleGlnLeuNleHisGlnHarAlaLysTrpLeuAlaSerValArgArgTyrNH2 ([Deg][Bpa][Deg]EIQL[Nle]HQ[hArg]AKWLASVRRY-NH2; N-terminus assumed; SMILES CCCC[C@H](NC(=O)[C@H](CC(C)C)NC(=O)[C@H](CCC(N)=O)NC(=O)[C@@H](NC(=O)[C@H](CCC(=O)O)NC(=O)C(CC)(CC)NC(=O)[C@H](Cc1ccc(C(=O)c2ccccc2)cc1)NC(=O)C(N)(CC)CC)[C@@H](C)CC)C(=O)N[C@@H](Cc1c[nH]cn1)C(=O)N[C@@H](CCC(N)=O)C(=O)N[C@@H](CCCCNC(=N)N)C(=O)N[C@@H](C)C(=O)N[C@@H](CCCCN)C(=O)N[C@@H](Cc1c[nH]c2ccccc12)C(=O)N[C@@H](CC(C)C)C(=O)N[C@@H](C)C(=O)N[C@@H](CO)C(=O)N[C@H](C(=O)N[C@@H](CCCNC(=N)N)C(=O)N[C@@H](CCCNC(=N)N)C(=O)N[C@@H](Cc1ccc(O)cc1)C(N)=O)C(C)C)”: the “antagonism of agonist-induced cAMP response” value is recorded as “strongly inhibited” in assay [1] (agonist [Ac5c1,Aib3,Gln10,Har11,Ala12,Trp14]PTH(1-14)NH2); “antagonizes either agonist” in assay [1] (agonist [Ac5c1,Aib3,Gln10,Har11,Ala12,Trp14]PTH(1-14)NH2, listed as Deg^1,3,Bpa^2-PTH(1-21)); “strongly inhibited” in assay [1] (agonist [Aib1,3,Tyr34]hPTH(1-34)NH2); “antagonizes either agonist” in assay [1] (agonist [Aib1,3,Tyr34]hPTH(1-34)NH2, listed as Deg^1,3,Bpa^2-PTH(1-21)); “antagonizes PTH(1- 14), more effectively than does PTHrP(5-36)” in assay [3]. The entries for the “N versus J domain selectivity of P1R antagonist” value in assay [1] and in assay [1] (listed as Deg^1,3,Bpa^2-PTH(1-21)) were “potent J-domain selective antagonist” and “J domain-selective antagonist”, respectively. Further, the “shift of agonist dose-response curve” value in assay [2] is “rightward and parallel shift in the agonist response curve”; in assay [2] (listed as [Deg^1,3,Bpa^2,M]PTH(1-21)), “parallel, right-ward shift in the agonist dose-response curve”. Moreover, the mechanism of inhibition result in assay [2] is on record as “competitive”.

The term EC50 denotes the concentration at which the effect is half-maximal. For “PTH(1-34): first 34 amino acids of parathyroid hormone”, the EC50 in assay [4] is approximately 2 nM.
